Data reported in the supplement of paper PMC5998384.

Experiments:
HeLa Kyoto [1] = assay: solubility in G1/S (NP-40 vs SDS abundance) (log2 ratio); higher = more soluble; conditions: cell cycle stage: G1/S
HeLa Kyoto [2] = assay: solubility change mitosis vs G1/S (difference of NP-40 vs SDS log2 ratios) (log2 ratio difference); higher = more soluble in mitosis
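Throughout, for solubility change mitosis vs G1/S (difference of NP-40 vs SDS log2 ratios): synchronized HeLa Kyoto cells (double thymidine block for G1/S, nocodazole release for mitosis), protein amounts in NP-40 versus SDS lysates quantified by mass spectrometry, three biological replicates.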
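Throughout, for solubility in G1/S (NP-40 vs SDS abundance): HeLa Kyoto cells arrested at G1/S by double thymidine block, proteins quantified by TMT10plex mass spectrometry in mild NP-40 versus SDS extracts, three biological replicates.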

Sequence | solubility in G1/S (log2) (HeLa Kyoto [1]) | solubility change mitosis (log2) (HeLa Kyoto [2])
MAEGPEEARGHPPGQDDGGGDHEPVPSLRGPPTTAVPCPRDDPQAEPQAPGRPTAPGLAAAAAADKLEPPRELRKRGEAASGSGAELQEQAGCEAPEAAAPRERPARLSAREYSRQVHEWLWQSYCGYLTWHSGLAAFPAYCSPQPSPQSFPSGGAAVPQAAAPPPPQLGYYNPFYFLSPGAAGPDPRTAAGISTPAPVAGLGPRAPHVQASVRATPVTRVGSAAPSRSPSETGRQAGREYVIPSLAHRFMAEMVDFFILFFIKATIVLSIMHLSGIKDISKFAMHYIIEEIDEDTSMEDLQKMMVVALIYRLLVCFYEIICIWGAGGATPGKFLLGLRVVTCDTSVLIAPSRVLVIPSSNVSITTSTIRALIKNFSIASFFPAFITLLFFQHNRTAYDIVAGTIVVKRNGVR [FAM8A1] | -0.0476 | 0.0402
MAENLKGCSVCCKSSWNQLQDLCRLAKLSCPALGISKRNLYDFEVEYLCDYKKIREQEYYLVKWRGYPDSESTWEPRQNLKCVRILKQFHKDLERELLRRHHRSKTPRHLDPSLANYLVQKAKQRRALRRWEQELNAKRSHLGRITVENEVDLDGPPRAFVYINEYRVGEGITLNQVAVGCECQDCLWAPTGGCCPGASLHKFAYNDQGQVRLRAGLPIYECNSRCRCGYDCPNRVVQKGIRYDLCIFRTDDGRGWGVRTLEKIRKNSFVMEYVGEIITSEEAERRGQIYDRQGATYLFDLDYVEDVYTVDAAYYGNISHFVNHSCDPNLQVYNVFIDNLDERLPRIAFFATRTIRAGEELTFDYNMQVDPVDMESTRMDSNFGLAGLPGSPKKRVRIECKCGTESCRKYLF [SUV39H1] | -0.773 | -0.415
MAEPSQAPTPAPAAQPRPLQSPAPAPTPTPAPSPASAPIPTPTPAPAPAPAAAPAGSTGTGGPGVGSGGAGSGGDPARPGLSQQQRASQRKAQVRGLPRAKKLEKLGVFSACKANETCKCNGWKNPKPPTAPRMDLQQPAANLSELCRSCEHPLADHVSHLENVSEDEINRLLGMVVDVENLFMSVHKEEDTDTKQVYFYLFKLLRKCILQMTRPVVEGSLGSPPFEKPNIEQGVLNFVQYKFSHLAPRERQTMFELSKMFLLCLNYWKLETPAQFRQRSQAEDVATYKVNYTRWLCYCHVPQSCDSLPRYETTHVFGRSLLRSIFTVTRRQLLEKFRVEKDKLVPEKRTLILTHFPKFLSMLEEEIYGANSPIWESGFTMPPSEGTQLVPRPASVSAAVVPSTPIFSPSMGGGSNSSLSLDSAGAEPMPGEKRTLPENLTLEDAKRLRVMGDIPMELVNEVMLTITDPAAMLGPETSLLSANAARDETARLEERRGIIEFHVIGNSLTPKANRRVLLWLVGLQNVFSHQLPRMPKEYIARLVFDPKHKTLALIKDGRVIGGICFRMFPTQGFTEIVFCAVTSNEQVKGYGTHLMNHLKEYHIKHNILYFLTYADEYAIGYFKKQGFSKDIKVPKSRYLGYIKDYEGATLMECELNPRIPYTELSHIIKKQKEIIKKLIERKQAQIRKVYPGLSCFKEGVRQIPVESVPGIRETGWKPLGKEKGKELKDPDQLYTTLKNLLAQIKSHPSAWPFMEPVKKSEAPDYYEVIRFPIDLKTMTERLRSRYYVTRKLFVADLQRVIANCREYNPPDSEYCRCASALEKFFYFKLKEGGLIDK [KAT2A] | 0.0904 | -0.058
MAETSPEPSGQLVVHSDAHSDTVLASFEDQRKKGFLCDITLIVENVHFRAHKALLAASSEYFSMMFAEEGEIGQSIYMLEGMVADTFGILLEFIYTGYLHASEKSTEQILATAQFLKVYDLVKAYTDFQNNHSSPKPTTLNTAGAPVVVISNKKNDPPKRKRGRPKKVNTLQEEKSELAAEEEIQLRVNNSVQNRQNFVVKGDSGVLNEQIAAKEKEESEPTCEPSREEEMPVEKDENYDPKTEDGQASQSRYSKRRIWRSVKLKDYKLVGDQEDHGSAKRICGRRKRPGGPEARCKDCGKVFKYNHFLAIHQRSHTGERPFKCNECGKGFAQKHSLQVHTRMHTGERPYTCTVCSKALTTKHSLLEHMSLHSGQKSFTCDQCGKYFSQNRQLKSHYRVHTGHSLPECKDCHRKFMDVSQLKKHLRTHTGEKPFTCEICGKSFTAKSSLQTHIRIHRGEKPYSCGICGKSFSDSSAKRRHCILHTGKKPFSCPECNLQFARLDNLKAHLKIHSKEKHASDASSISGSSNTEEVRNILQLQPYQLSTSGEQEIQLLVTDSVHNINFMPGPSQGISIVTAESSQNMTADQAANLTLLTQQPEQLQNLILSAQQEQTEHIQSLNMIESQMGPSQTEPVHVITLSKETLEHLHAHQEQTEELHLATSTSDPAQHLQLTQEPGPPPPTHHVPQPTPLGQEQS [ZBTB24] | -0.495 | 0.142
MAGAGRGAAVSRVQAGPGSPRRARGRQQVQPLGKQRPAPWPGLRSKEKKKVNCKPKNQDEQEIPFRLREIMRSRQEMKNPISNKKRKKAAQVTFRKTLEKEAKGEEPDIAVPKFKQRKGESDGAYIHRMQQEAQHVLFLSKNQAIRQPEVQAAPKEKSEQKKAKKAFQKRRLDKVRRKKEEKAADRLEQELLRDTVKFGEVVLQPPELTARPQRSVSKDQPGRRSQMLRMLLSPGGVSQPLTASLARQRIVEEERERAVQAYRALKQRQQQLHGERPHLTSRKKPEPQL [CCDC137] | -1.04 | 0.83
MAGALVRKAADYVRSKDFRDYLMSTHFWGPVANWGLPIAAINDMKKSPEIISGRMTFALCCYSLTFMRFAYKVQPRNWLLFACHATNEVAQLIQGGRLIKHEMTKTASA [MPC1] | -0.461 | -0.165
MAGGPGPGEPAAPGAQHFLYEVPPWVMCRFYKVMDALEPADWCQFAALIVRDQTELRLCERSGQRTASVLWPWINRNARVADLVHILTHLQLLRARDIITAWHPPAPLPSPGTTAPRPSSIPAPAEAEAWSPRKLPSSASTFLSPAFPGSQTHSGPELGLVPSPASLWPPPPSPAPSSTKPGPESSVSLLQGARPFPFCWPLCEISRGTHNFSEELKIGEGGFGCVYRAVMRNTVYAVKRLKENADLEWTAVKQSFLTEVEQLSRFRHPNIVDFAGYCAQNGFYCLVYGFLPNGSLEDRLHCQTQACPPLSWPQRLDILLGTARAIQFLHQDSPSLIHGDIKSSNVLLDERLTPKLGDFGLARFSRFAGSSPSQSSMVARTQTVRGTLAYLPEEYIKTGRLAVDTDTFSFGVVVLETLAGQRAVKTHGARTKYLKDLVEEEAEEAGVALRSTQSTLQAGLAADAWAAPIAMQIYKKHLDPRPGPCPPELGLGLGQLACCCLHRRAKRRPPMTQVYERLEKLQAVVAGVPGHSEAASCIPPSPQENSYVSSTGRAHSGAAPWQPLAAPSGASAQAAEQLQRGPNQPVESDESLGGLSAALRSWHLTPSCPLDPAPLREAGCPQGDTAGESSWGSGPGSRPTAVEGLALGSSASSSSEPPQIIINPARQKMVQKLALYEDGALDSLQLLSSSSLPGLGLEQDRQGPEESDEFQS [IRAK1] | 0.247 | 0.07
